In paper PMC3418399:

How the values were obtained:
[1] = target: Candida albicans ATP-binding cassette transporter CaCdr1p (Candida albicans) (UniProt Q5ANA3)
[2] = target: Candida albicans ATP-binding cassette transporter CaCdr1p (Candida albicans) (UniProt Q5ANA3); remark: listed apart in the source

Sequence of Candida albicans ATP-binding cassette transporter CaCdr1p (Candida albicans) (Q5ANA3 whole entry): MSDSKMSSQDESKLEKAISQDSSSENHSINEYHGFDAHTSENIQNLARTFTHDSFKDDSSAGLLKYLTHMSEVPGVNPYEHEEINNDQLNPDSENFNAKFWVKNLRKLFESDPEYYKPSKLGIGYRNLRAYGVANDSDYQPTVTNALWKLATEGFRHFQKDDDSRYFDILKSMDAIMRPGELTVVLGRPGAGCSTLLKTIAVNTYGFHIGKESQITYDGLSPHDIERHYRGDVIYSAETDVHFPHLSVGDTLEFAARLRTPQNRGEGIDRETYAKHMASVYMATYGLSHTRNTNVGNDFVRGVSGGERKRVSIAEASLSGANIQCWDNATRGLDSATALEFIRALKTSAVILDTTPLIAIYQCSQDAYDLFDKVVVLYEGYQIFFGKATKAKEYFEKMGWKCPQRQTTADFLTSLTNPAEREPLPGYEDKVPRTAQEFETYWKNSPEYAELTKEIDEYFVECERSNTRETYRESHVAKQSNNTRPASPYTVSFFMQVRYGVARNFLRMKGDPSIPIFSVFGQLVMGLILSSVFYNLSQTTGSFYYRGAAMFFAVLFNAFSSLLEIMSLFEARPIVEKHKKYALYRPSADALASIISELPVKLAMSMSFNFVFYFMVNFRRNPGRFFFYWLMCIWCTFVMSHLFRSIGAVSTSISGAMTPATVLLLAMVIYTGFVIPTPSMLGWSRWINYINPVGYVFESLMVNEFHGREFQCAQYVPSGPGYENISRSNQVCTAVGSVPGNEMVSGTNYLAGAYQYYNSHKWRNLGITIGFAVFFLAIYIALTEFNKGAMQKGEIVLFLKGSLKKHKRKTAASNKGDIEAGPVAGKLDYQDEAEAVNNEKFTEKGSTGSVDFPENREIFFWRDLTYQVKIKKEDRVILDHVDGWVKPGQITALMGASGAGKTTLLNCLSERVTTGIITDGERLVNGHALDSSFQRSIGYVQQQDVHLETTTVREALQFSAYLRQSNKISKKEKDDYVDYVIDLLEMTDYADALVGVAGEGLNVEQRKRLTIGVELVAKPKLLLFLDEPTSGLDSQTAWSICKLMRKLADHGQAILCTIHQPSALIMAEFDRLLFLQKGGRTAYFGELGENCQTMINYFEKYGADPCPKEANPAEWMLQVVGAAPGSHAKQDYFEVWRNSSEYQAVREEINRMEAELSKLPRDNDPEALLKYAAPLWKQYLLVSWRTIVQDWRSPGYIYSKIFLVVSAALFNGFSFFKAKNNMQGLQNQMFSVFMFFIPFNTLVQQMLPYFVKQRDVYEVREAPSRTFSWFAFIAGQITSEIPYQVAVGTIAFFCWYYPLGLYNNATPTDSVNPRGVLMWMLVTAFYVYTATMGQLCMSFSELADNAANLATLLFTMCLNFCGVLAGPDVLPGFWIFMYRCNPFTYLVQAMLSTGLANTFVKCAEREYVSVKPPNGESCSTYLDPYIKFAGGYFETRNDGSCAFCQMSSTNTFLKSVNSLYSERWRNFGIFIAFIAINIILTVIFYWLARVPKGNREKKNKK

Substance	IC50 of inhibition of the ATPase activity of CaCdr1p [1] [µM]	IC50 of inhibition of the CaCdr1p ATPase activity, plasma membrane preparations [2] [µM]
RC1, naked D-octapeptide D-NH2-FFKWQRRR-CONH2	> 200	–
RC21v3, D-NH2-FFKWQR(Mtr)RR-CONH2 (peptide)	–	1.1
